{
  "source": "patent US20180265843A1",
  "about": "“METHOD AND MEDIUM FOR NEURAL DIFFERENTIATION OF PLURIPOTENT CELLS” (INSERM 9INSTITUT NATIONAL DE LA SANTÉ ET DE LA RECHERCHE …, priority 2009, published 2018)",
  "key": {"[1]": {"system": "hES cells", "assay": "FACS analysis of culture composition after differentiation with Noggin, SB431542 or both (NFS)", "format": "cell-based, human", "conditions": "for differentiation of hES cells into an alternative fate than the neural lineage: 8 days treatment in N2B27; for proportion of neural cells, in words: 8 days treatment in N2B27, FACS", "from_the_text": "A—FACS analyses of the composition of the whole culture after 8 days of differentiation in N2B27 alone or completed with Noggin, SB431542 or both (NFS). B—QPCR quantification of transcript specific of ES cells (Oct4 and Nanog) and early neural precursors (PAX6 and SOX1) for each condition of differentiation.\n(§1) Human ES cell cultures or IFS cultures reaching 70-80% confluence were used to perform neural induction using NFS medium. Colonies were cut in pieces and manually detached in N2B27 or NFS medium completed with the Rock-inhibitor Y27632 (10 μM, Calbiochem). Clusters were transferred for 6 h in a low attachment Petri dish in order to completely starve them from the influence of the feeders. Finally, the hES or IFS suspension was plated in the same medium at a 1:1 ratio in culture dishes pre-coated with poly-ornithin and laminin (2 μg/ml, Sigma). The day after and then every other day, the medium was changed for NFS medium without Y27632.\nCells were collected using trypsin and fixed with 2% PFA for 15 min at 4° C. Permeabilization was performed using a PBS/0.1% saponin solution 10 min at RT. The same solution was then used to dilute primary antibodies as followed: mouse monoclonal OCT4 antibody linked to phycoerythrin (oct4-PE, 1:10°, BD Biosciences) and polyclonal rabbit anti-SOX2 antibody (1:500°, Chemicon). Cells were exposed to the mixture of primary antibodies 45 min at RT. An additional incubation with anti-rabbit secondary antibodies linked to AlexaFluo 488 was performed during 30 min at RT in order to detect SOX2 unconjugated antibodies. FACS analysis was performed using a Becton Dickinson FACScalibur™ flow cytometer.\nWe first monitored the efficiency of neural differentiation obtained only by removing from the culture medium any known instructive signals for alternative cell fates. We used N2B27 medium, a defined medium previously developed to induce neural differentiation of both mouse and human embryonic stem cells in an adherent monolayer culture system (Ying et al., 2003; Lowell et al., 2006). In order to analyzed consistently differentiation of several naïve hES cell lines, we have develop a protocol of systematic counting where cells were stained using antibodies against OCT4 and SOX2 transcription factors and then, analysed using FACS technology. Cells expressing both OCT4 and SOX2 were considered as embryonic stem cells whereas cells expressing only SOX2 were counted as neural cells. Cells totally negative or expressing only OCT4 were designated as differentiated into other type of tissues or layers. FACS analysis was performed on 4 hES cell lines (Hues 24, H9, VUB01, SA01), 8 days after platting on laminin in N2B27. Neural differentiation was obtained with all cell lines, but the efficiency of differentiation appeared highly variable depending of the cell line used, ranging from 33.84% for SA01 line to 82.33% for VUB01 line (FIG. 1-A)."}, "[2]": {"system": "hES cells", "assay": "Real-time qPCR of lineage marker transcripts after differentiation", "format": "cell-based, human", "conditions": "for expression of early neural markers PAX6 and SOX1: 8 days treatment in N2B27, qPCR; for neural crest cells (PAX3+/SOX10+) and keratinocytes (Cytokeratins 8 and 18), alternative fates from primitive ectoderm: 8 days treatment, qPCR and ICC", "procedure": "as §1\nTotal RNA was isolated using the RNeasy Mini Kit (Qiagen) according to the manufacturer's instructions. A total of 500 ng of RNA were reverse transcribed into cDNA with SuperScript III (Invitrogen) using random primers. Real-time Q-PCR was performed with SYBR Green as a probe on a LC480 Real-Time system (Roche). Quantification was performed at a threshold detection line (Ct value). The Ct of each target gene was normalized against that of the cyclophilin as a housekeeping gene. The 2-ΔΔCt method was used to determine the relative level of expression of each gene. Data were expressed as mean±SEM. Primer sequences are listed in follow."}, "[3]": {"conditions": "8 days of differentiation, qPCR"}},
  "data": [
    {"molecule": "NC(=O)c1ccc(-c2nc(-c3ccc4c(c3)OCO4)c(-c3ccccn3)[nH]2)cc1", "note": "[SB431542, 4-(5-Benzol[1,3]dioxol-5-yl-4-pyrlidn-2-yl-1H-imidazol-2-yl)-benzamide hydrate, reference compound]", "values": [
      {"measurement": "differentiation of hES cells into an alternative fate than the neural lineage", "setting": "[1]", "value": "drastic differentiation of ES into an alternative fate"},
      {"measurement": "proportion of neural cells, in words", "setting": "[1]", "value": "didn't increase robustly"},
      {"measurement": "markers of primitive endoderm (SOX17, FOXA1) and primitive mesoderm (Brachyury, FLK1)", "setting": "[2]; [3]", "value": "not detected"},
      {"measurement": "expression of early neural markers PAX6 and SOX1", "setting": "[2]", "value": "didn't increase robustly"},
      {"measurement": "neural crest cells (PAX3+/SOX10+) and keratinocytes (Cytokeratins 8 and 18), alternative fates from primitive ectoderm", "setting": "[2]", "value": "detected"}
    ]},
    {"molecule": "Noggin: natural inhibitor of the BMP pathway; recombinant noggin from R&D Systems or Preprotech (protein, UniProt Q13253 28-232, looked up) Noggin: QHYLHIRPAPSDNLPLVDLIEHPDPIFDPKEKDLNETLLRSLLGGHYDPGFMATSPPEDRPGGGGGAAGGAEDLAELDQLLRQRPSGAMPSEIKGLEFSEGLAQGKKQRLSKKLRRKLQMWLWSQTFCPVLYAWNDLGSRFWPRYVKVGSCFSKRSCSVPEGMVCKPSKSVHLTVLRWRCQRRGGQRCGWIPIQYPIISECKCSC", "values": [
      {"measurement": "differentiation of hES cells into an alternative fate than the neural lineage", "setting": "[1]", "value": "complete blockage"},
      {"measurement": "proportion of neural cells, in words", "setting": "[1]", "value": "slight increased"},
      {"measurement": "ES cells expressing Oct4 and NANOG remaining in the culture", "setting": "[1]; after 8 days of treatment", "value": "a large number of ES cells"},
      {"measurement": "markers of primitive endoderm (SOX17, FOXA1) and primitive mesoderm (Brachyury, FLK1)", "setting": "[2]; [3]", "value": "not detected"},
      {"measurement": "transcripts of extra-embryonic tissue markers CDX2 and Eomes", "setting": "[2]; [3]", "value": "not detected"},
      {"measurement": "expression of early neural markers PAX6 and SOX1", "setting": "[2]", "value": "slight increased"},
      {"measurement": "neural crest cells (PAX3+/SOX10+) and keratinocytes (Cytokeratins 8 and 18), alternative fates from primitive ectoderm", "setting": "[2]", "value": "not detected"}
    ]}
  ]
}
